Results on 10 substances are retold here after paper PMC10150588 (Journal of chemical information and modeling, 2023).

The target in test [1] is CHD4 peptide (Homo sapiens) (UniProt Q14839). The following applies: cited from earlier work.
The target of test [2] is BRG1 peptide (Homo sapiens) (UniProt P51532). Particulars: cited from earlier work.
Test [3] has as its target NSD3 short peptide (Homo sapiens) (UniProt Q9BZ95). The following applies: cited from earlier work.
Test [4] addresses JMJD6 peptide (Homo sapiens) (UniProt Q6NYC1). Particulars: cited from earlier work.
Test [5] has as its target LANA peptide (Human herpesvirus 8) (UniProt Q9QR71). Particulars: cited from earlier work.
For test [6], the target named is T1, BRD3 ET (Homo sapiens, UniProt Q15059). Particulars: cited from earlier work.
T1 sequence (Q15059 554-640): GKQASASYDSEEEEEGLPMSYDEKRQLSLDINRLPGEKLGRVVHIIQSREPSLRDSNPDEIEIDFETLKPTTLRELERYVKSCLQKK
For test [7], the target named is T1, BRD3 ET. Particulars: cited from earlier work. This is another data set of the same source.
For test [8], the target named is BRD4 ET (Homo sapiens) (UniProt O60885). The following applies: cited from earlier work.
Another test has as its target BRD3-ET. Particulars: cited from earlier work.
The subject of another test is BRD4-ET. Particulars: cited from earlier work.
Test [9] concerns the target BRD4 ET (Homo sapiens) (UniProt O60885). The following applies: cited from earlier work. This is another data set of the same source.
In test [10] the target is T1, BRD3 ET. Nature of the test: Isothermal titration calorimetry, peptide binding to BRD3 ET. The following applies: ITC, 20 mM Tris, 150 mM NaCl, 1 mM TCEP. Set-up: species or system murine. In general terms: In ITC the heat of successive injections is recorded.

“And” between values parts separate entries of the source, which are not always exact repeats. Equal entries are not always repeated. Where two headings read alike, the source gives them in different places. No end group written: not given here.

Sequence of BRD3 ET (from UniProt Q15059) (Q15059 562-644): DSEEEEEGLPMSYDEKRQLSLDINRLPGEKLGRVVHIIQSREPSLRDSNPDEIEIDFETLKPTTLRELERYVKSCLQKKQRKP
Sequence of CHD4 peptide (Homo sapiens) (Q14839 whole entry): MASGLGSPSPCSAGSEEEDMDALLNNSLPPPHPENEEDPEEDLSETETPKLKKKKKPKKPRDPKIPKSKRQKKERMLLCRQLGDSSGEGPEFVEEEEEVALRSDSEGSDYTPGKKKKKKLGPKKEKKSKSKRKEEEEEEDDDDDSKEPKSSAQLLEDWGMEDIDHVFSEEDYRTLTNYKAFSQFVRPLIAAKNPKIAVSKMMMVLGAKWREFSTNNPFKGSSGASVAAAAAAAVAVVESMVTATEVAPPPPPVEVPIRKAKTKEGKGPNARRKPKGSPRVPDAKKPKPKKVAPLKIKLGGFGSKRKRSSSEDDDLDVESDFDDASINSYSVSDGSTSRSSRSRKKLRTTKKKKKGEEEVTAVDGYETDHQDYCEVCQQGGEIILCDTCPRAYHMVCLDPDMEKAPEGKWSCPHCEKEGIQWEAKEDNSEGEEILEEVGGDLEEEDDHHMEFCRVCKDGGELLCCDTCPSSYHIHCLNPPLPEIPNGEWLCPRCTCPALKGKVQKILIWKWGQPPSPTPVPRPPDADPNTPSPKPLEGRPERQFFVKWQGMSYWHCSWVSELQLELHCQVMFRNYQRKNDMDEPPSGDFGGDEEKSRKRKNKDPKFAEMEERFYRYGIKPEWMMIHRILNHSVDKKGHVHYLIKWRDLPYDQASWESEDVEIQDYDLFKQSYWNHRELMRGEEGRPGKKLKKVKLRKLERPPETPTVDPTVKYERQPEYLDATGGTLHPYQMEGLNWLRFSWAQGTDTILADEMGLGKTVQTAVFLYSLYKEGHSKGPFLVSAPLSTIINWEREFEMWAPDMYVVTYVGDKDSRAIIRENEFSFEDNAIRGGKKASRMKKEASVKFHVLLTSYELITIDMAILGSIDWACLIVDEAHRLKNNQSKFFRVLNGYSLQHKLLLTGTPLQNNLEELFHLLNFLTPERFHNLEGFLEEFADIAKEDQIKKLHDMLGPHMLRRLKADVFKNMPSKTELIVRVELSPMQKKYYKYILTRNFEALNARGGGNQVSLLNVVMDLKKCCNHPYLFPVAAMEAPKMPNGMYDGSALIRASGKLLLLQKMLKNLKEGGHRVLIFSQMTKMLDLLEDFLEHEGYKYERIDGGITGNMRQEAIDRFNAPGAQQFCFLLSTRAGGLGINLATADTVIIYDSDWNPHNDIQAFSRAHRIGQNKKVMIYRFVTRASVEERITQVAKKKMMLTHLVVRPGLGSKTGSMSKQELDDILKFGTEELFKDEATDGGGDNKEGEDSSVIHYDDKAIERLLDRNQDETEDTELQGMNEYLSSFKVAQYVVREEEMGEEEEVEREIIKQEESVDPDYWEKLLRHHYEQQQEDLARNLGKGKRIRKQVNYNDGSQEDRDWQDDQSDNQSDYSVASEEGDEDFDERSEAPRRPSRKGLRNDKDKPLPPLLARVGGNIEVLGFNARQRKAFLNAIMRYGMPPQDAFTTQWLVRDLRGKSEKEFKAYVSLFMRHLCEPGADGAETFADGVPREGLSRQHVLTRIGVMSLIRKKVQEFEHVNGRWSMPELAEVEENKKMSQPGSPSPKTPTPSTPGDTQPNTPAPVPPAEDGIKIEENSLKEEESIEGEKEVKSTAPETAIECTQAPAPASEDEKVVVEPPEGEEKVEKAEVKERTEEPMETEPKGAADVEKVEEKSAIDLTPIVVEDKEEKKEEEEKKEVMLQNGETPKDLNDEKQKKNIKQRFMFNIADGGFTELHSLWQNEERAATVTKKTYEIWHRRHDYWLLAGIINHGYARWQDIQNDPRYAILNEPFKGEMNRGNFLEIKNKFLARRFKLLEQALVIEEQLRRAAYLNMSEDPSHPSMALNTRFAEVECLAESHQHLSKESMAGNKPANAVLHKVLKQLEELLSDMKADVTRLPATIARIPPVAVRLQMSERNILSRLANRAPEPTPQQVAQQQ
Sequence of BRG1 peptide (Homo sapiens) (P51532 whole entry): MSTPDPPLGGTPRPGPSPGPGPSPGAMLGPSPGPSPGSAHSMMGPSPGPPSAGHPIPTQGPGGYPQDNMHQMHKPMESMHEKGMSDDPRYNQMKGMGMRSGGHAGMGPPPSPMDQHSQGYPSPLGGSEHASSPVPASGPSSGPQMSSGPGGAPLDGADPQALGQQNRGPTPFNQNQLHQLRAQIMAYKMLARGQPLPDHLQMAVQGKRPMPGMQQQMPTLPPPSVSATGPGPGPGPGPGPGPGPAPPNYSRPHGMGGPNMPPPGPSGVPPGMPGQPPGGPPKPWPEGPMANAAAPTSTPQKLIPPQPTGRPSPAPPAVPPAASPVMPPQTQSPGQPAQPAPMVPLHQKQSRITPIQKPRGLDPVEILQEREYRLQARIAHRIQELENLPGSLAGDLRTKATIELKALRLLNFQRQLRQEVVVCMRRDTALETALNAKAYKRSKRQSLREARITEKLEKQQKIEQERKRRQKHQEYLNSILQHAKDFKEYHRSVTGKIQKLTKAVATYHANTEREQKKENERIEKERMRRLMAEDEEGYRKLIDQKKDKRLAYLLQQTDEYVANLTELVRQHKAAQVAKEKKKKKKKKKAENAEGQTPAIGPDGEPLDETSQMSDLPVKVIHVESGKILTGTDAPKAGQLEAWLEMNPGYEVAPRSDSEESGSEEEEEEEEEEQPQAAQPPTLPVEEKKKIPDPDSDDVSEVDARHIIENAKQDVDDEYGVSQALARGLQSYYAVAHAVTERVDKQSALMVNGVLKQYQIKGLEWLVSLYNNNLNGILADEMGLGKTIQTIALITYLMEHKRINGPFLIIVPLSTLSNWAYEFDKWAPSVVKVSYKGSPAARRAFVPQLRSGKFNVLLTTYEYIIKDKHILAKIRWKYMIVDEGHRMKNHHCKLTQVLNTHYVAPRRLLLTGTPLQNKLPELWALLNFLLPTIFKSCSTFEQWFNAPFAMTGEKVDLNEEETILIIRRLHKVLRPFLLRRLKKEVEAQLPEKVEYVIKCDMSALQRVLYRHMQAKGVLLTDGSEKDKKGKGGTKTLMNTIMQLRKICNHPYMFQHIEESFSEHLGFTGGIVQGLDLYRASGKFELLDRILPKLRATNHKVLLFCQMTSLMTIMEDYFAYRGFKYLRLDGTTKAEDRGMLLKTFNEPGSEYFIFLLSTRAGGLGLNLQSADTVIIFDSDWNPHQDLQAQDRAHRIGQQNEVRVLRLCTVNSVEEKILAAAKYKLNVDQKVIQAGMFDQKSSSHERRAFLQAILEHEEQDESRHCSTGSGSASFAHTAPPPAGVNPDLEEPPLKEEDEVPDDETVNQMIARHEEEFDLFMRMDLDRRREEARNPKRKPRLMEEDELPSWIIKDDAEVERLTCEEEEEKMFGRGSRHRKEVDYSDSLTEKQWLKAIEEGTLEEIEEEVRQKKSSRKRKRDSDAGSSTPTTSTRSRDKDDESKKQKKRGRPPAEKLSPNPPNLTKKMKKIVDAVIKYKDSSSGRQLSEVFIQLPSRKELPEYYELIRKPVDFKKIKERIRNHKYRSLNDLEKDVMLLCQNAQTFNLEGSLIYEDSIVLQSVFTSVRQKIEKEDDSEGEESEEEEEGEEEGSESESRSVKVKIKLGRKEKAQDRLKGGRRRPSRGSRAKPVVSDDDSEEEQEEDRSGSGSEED
Sequence of LANA peptide (Human herpesvirus 8) (Q9QR71 1-23): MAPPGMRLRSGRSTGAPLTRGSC

As to BRD3 ET (from UniProt Q15059), the Kd (as a rule, the constant that tells how readily two partners part at equilibrium) in [1] is 95 µM; in [2], 7 µM; in test [3], 950 µM.

Turning to BRD4 ET (from UniProt O60885), the Kd in test [4] was 160 µM; in test [5] it was 635 µM.

As to BRG1 1591-1602 (from UniProt P51532), the Kd in the test with BRD3 ET [6] is 7 µM.

As for CHD4 290-301 (from UniProt Q14839), the dissociation constant (Kd) with BRD3 ET [7] is 95 µM.

Consider JMJD6 84-96 (from UniProt Q6NYC1), for which, in the test with BRD4 ET (Homo sapiens) [8], the Kd was 160 µM.

With KVAPLKIKLGGF [CHD4], the Kd on BRD3-ET (BRD3-ET) is ~95 µM and < 100 µM.

As to KWTLERLKRKYRN [JMJD6], the “relative binding strength” value in the test on BRD4-ET (BRD4-ET binding of JMJD6 compared with NSD3 and LANA binding BRD3-ET) was “reported to bind BRD4-ET more strongly than NSD3 and LANA bind BRD3-ET”. Moreover, the Kd at BRD4-ET (BRD4-ET:JMJD6, 20 °C) was approximately 160 µM. Also, the “relative binding to BRD3-ET vs BRD4-ET” value in the test on BRD3-ET (BRD3-ET compared with BRD4-ET) is listed as “weak or no binding”.

On to LANA 1098-1116 (from UniProt Q9QR71), for which the Kd with BRD4 ET (Homo sapiens) [9] was 635 µM.

As to NLQSSIVKFKKPLPLTQPG [LANA], the Kd at BRD4-ET (BRD4-ET:LANA) was approximately 635 µM.

Take SRLTWRVQRSQNPLKIRLTREAP [TP]: the Kd came out at 13 ± 10 nM on BRD3 ET [10] (pH 7.5, 10 °C) and 90 ± 10 nM on BRD3 ET [10] (pH 7.5, 25 °C).
